Assay results published in the supplement of paper PMC9170038.

Test system: K4 kissing-loop RNA reporter
Experiment: apparent KD of K4 kissing-loop reporter; higher = weaker reporter binding
Conditions: Eterna round: R107
Procedure: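 RNA-MaP round R107: designed RNA switches with theophylline, tryptophan, arginine or FMN aptamers are transcribed on-chip within common flanks. They are titrated with a labelled K4 kissing-loop RNA reporter in RNA-MaP buffer (100 mM Tris pH 7.5, 80 mM KCl, 4 mM MgCl2), without ligand or with the indicated ligand. Median apparent KD per design.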

[1] = input ligand: theophylline 20 uM
[2] = input ligand: tryptophan 2.4 mM
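Also: bound reporter read as fluorescence of individual clusters on recovered sequencing chips by microscopy, with normalized cluster intensities fitted with a binding model.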

| Sequence | apparent KD of K4 kissing-loop reporter (input ligand: FMN 200 uM) [nM] | apparent KD of K4 kissing-loop reporter (input ligand: arginine 13.2 mM) [nM] | apparent KD of K4 kissing-loop reporter (input ligand: none) [nM] | apparent KD of K4 kissing-loop reporter [1] [nM] | apparent KD of K4 kissing-loop reporter [2] [nM] |
| --- | --- | --- | --- | --- | --- |
| GAGAUAGAGGCGGCCGCCACUAGUGAUGUUAGUGAUGUUAGAUAGAGAAUAGAACAGAGGUAGGAUAGGACCGGGCCAGAUAGAG [whbob_SS_Tryp_B_w31] | 90.6 | 65.3 | 62.4 | 77 | 83.7 |
| GAGAUAGCGACGGCCGCCACUAGUGAUGUUAGUGCUGGUAGAUAGAUACUGGAACAGAAAUGACGUAGGACCGGGUCAGAUAGAG [#01 K4 Tryptophan B Exclusion] | 264 | 233 | 292 | 334 | 247 |
| GAGCGGUGGAGGUUACCGCUAUUCUGAGAAGGAGCGCAGAAGACUGCAGGUAGGUCGCUUAGAGCUUGCAGUGAUGUUGCAAGUU [KL-SSArg-A13] | 173 | 122 | 141 | 160 | 127 |
| GAGGUACAGCUGGCCGUCGAAUUGUCCGAUACCAGACACUCUCUAGUCCCUUGGCAGCGGUGGUAAGUGAUGUUUACAGGCGCCG [theeternabot_exclusion_KL_Theo_A_3] | 152 | 104 | 147 | 122 | 126 |
| GCAACAUUGGUAGGAUAUCAUUCUGAGUGAUGUUCAGGGUUCAGCUAACGAAAGUUAGUUGUACCAUGAGAAGGACUAAUGUUGC [Omei KL FMN B SS A v3] | 337 | 766 | 1220 | 1060 | 915 |
| GCAAGAGAGUGAUGUUGUUUUGAUCAGGGCAAGGAUAUGCUAUAUAGCAGAAGGUGCCGUUUUCUGCUGGCUUUCGUUACCCAUU [theeternabot_exclusion_KL_FMN_A_6] | 750 | 605 | 865 | 990 | 708 |
| GCACGUACCCGAAGGAGCGUGCAAGAAUCGUAGUGAUGUUACGGAGAGUGUCACGCCGUCGCACAGGUAGGUCGCGGGUACGUGC | 78.3 | 80.3 | 67.5 | 63.2 | 61.4 |
| GCAGUGAUGUUGCACGAGUAGGGUAGAGUGCGAGGACCGGUACGGCCGCCACUCGUAUGGAACUCGCUAAUUUAUGGAAUGGUGA [whbob_SS_tryp_A] | 791 | 828 | 1020 | 920 | 575 |
| GCAGUGAUGUUGCGGAUGUACAGUGGCGUGCGAGGACCGGUACGGCCGCCACUCGUACAGAGCGAGCUAAUACAUCGAUAGGUGA [whbob_SS_Tryp_A_m5] | 230 | 212 | 236 | 288 | 241 |
| GCAUCCAUGGCAGGAUAUAGGUUCAUGGAGUGAUGUUCCAUAACCCGAGUGAUGUUCGUUAUCCACCUAGAAGGGCCAUGGAUGC | 208 | 173 | 206 | 196 | 180 |
| GCCCGAAAGGGCCGAAGUGUUUGCGGCGAUCGAGGACCGGUACGGCCGCCACUCGUCGAGGCGUUCAGUGAUGUUGAAAGCAUGA | 250 | 257 | 215 | 266 | 480 |
| GCCCGAAAGGGCCGAUGUGUUUGCGGCGAUCGAGGACCGGUACGGCCGCCACUCGUCGAGGCGUUCAGUGAUGUUGAAAGCAUUA | 334 | 279 | 352 | 354 | 626 |
| GCCGUACGCACGGAUACCAGCACUCGGUGAGUGAUGUUCACGGUGUGGUAUUCAUCGGGCUGCCCUUGGCAGCCGUGCGUACGGC | 153 | 93.6 | 101 | 129 | 107 |
| GCCGUACGCACGGAUACCAGCACUCGUUGAGUGAUGUUCACGGUGUGGUAUUCAACGGGCUGCCCUUGGCAGCCGUGCGUACGGC | 135 | 91.2 | 134 | 139 | 144 |
| GCCGUACGCAUGGAUACCAGCGCUCGUCACCUAGCAGUGAUGUUGCUAAUGCCACGAGGACGCCCUUGGCAGCCAUGCGUACGGC | 116 | 101 | 102 | 83.3 | 107 |
| GCCGUACGCAUGGAUACCAGCUACUAGAGUGAUGUUCUAUGGCCCUGCCAAUGGAGCUGUAGCCCUUGGCAGCCAUGCGUACGGC | 130 | 125 | 105 | 122 | 126 |
| GCCGUACGCAUGGAUACCAGCUUGUCCGAGUGAUGUUCGGGUCUGAAUGCCGGUAAUAAGAGCCCUUGGCAGCCAUGCGUACGGC | 137 | 104 | 124 | 117 | 123 |
| GCCGUACGCAUGGAUACCAGUCAAGAUCAGUGAUGUUGAUCUUUUAUAGAGCCUUCAUUAGACCCUUGGCAGCCAUGCGUACGGC | 429 | 237 | 391 | 373 | 250 |
| GCCGUAGAUCGAAGGAGCGUGCAAGAAUCGUAGUGAUGUUACGGAGAGUGUCACGCCGUCGCACAGGUAGGUCGCGAUCUACGGC | 71 | 76.4 | 84.1 | 69.2 | 66.8 |
| GCCGUAGAUGGAAGGAGCGUGAAUGGCCUCUAUCCAAAGUGAUGUUUUGUUGAAGACUGUUCACAGGUAGGUCGCCAUCUACGGC | 165 | 125 | 135 | 135 | 140 |
| GCCGUAGAUGGAAGGAGCGUGUCAAAGUGAUGUUUUGAUUAACUCCCUUAGGGAAAGAUGGCACAGGUAGGUCGCCAUCUACGGC | 104 | 74.2 | 102 | 131 | 90.4 |
| GCCGUAGAUUGAAGGAGCGCCUUCUUACCAAGAGUGAUGUUCUUAGGUACCAUGUUCAGUAGGCAGGUAGGUCGCAAUCUACGGC | 499 | 441 | 484 | 647 | 489 |
